Measurements from article PMC12519566, “A TOM1 variant impairs interaction with TOLLIP, autophagosome-lysosome fusion and regulation of innate immunity” (Disease Models & Mechanisms, 2025).

Experiments:
GST [1] = test: cross-linking; glutaraldehyde dilution series (0.01-1%), 5 min at 37°C; SDS-PAGE
GST [2] = test: cross-linking; BS3 (0.25-5 mM), 30 min at room temperature; TOLLIP and TOM1 preincubated for 30 min before BS3; SDS-PAGE
TOLLIP = biological target: T1, TOLLIP (Homo sapiens, UniProt Q9H0E2); test: lipid-protein overlay; liposome co-sedimentation; format: binding; settings: without TOM1; overlay: PtdIns3P on PVDF, 60 nM GST-TOLLIP, pH 8.0, 4 C; sedimentation: 2.5 uM TOLLIP, DOPC/DOPE liposomes with 3% PtdIns3P
T1 construct: human TOLLIP cDNA in pGEX6P1, expressed in E. coli Rosetta; GST-TOLLIP in the lipid overlay, TOLLIP in liposome co-sedimentation

[3] = biological target: T2, TOM1 G307D, MYC-BirA fusion (BioID bait) (UniProt O60784 1-492, G307D); test: proximity labelling; BioID with mass spectrometry; Flp-In T-REx 293 cells induced with 2 µg/ml doxycycline and 50 µM biotin for 24 h; Strep-Tactin sepharose; three biological replicates; settings: partners not purified
T2 construct: also called TOM1 G307D variant; source: inducible Flp-In T-REx 293 cell line, induced with doxycycline and biotin, in cells

In the case of GST (natural protein), the stoichiometry N (GST [1]) is reported as 2 and the stoichiometry N (GST [2]) is reported as 2.

In the case of `CCCCCCCCCCCCCCCC(=O)OC[C@H](COP(=O)(O)O[C@@H]1[C@H](O)[C@H](OP(=O)(O)O)[C@@H](O)[C@H](O)[C@H]1O)OC(=O)CCCCCCCCCCCCCCC` [dipalmitoyl PtdIns3P], the “lipid-protein overlay; liposome co-sedimentation” value (TOLLIP) is reported as “As expected, TOM1 WT significantly reduced TOLLIP binding to PtdIns3P (Fig. 2B)”.

B1: myosin VI (natural protein, human (endogenous in Flp-In T-REx 293), UniProt Q9UM54 1-1294, looked up)
chain: MEDGKPVWAPHPTDGFQMGNIVDIGPDSLTIEPLNQKGKTFLALINQVFPAEEDSKKDVEDNCSLMYLNEATLLHNIKVRYSKDRIYTYVANILIAVNPYFDIPKIYSSEAIKSYQGKSLGTRPPHVFAIADKAFRDMKVLKMSQSIIVSGESGAGKTENTKFVLRYLTESYGTGQDIDDRIVEANPLLEAFGNAKTVRNNNSSRFGKFVEIHFNEKSSVVGGFVSHYLLEKSRICVQGKEERNYHIFYRLCAGASEDIREKLHLSSPDNFRYLNRGCTRYFANKETDKQILQNRKSPEYLKAGSMKDPLLDDHGDFIRMCTAMKKIGLDDEEKLDLFRVVAGVLHLGNIDFEEAGSTSGGCNLKNKSAQSLEYCAELLGLDQDDLRVSLTTRVMLTTAGGTKGTVIKVPLKVEQANNARDALAKTVYSHLFDHVVNRVNQCFPFETSSYFIGVLDIAGFEYFEHNSFEQFCINYCNEKLQQFFNERILKEEQELYQKEGLGVNEVHYVDNQDCIDLIEAKLVGILDILDEENRLPQPSDQHFTSAVHQKHKDHFRLTIPRKSKLAVHRNIRDDEGFIIRHFAGAVCYETTQFVEKNNDALHMSLESLICESRDKFIRELFESSTNNNKDTKQKAGKLSFISVGNKFKTQLNLLLDKLRSTGASFIRCIKPNLKMTSHHFEGAQILSQLQCSGMVSVLDLMQGGYPSRASFHELYNMYKKYMPDKLARLDPRLFCKALFKALGLNENDYKFGLTKVFFRPGKFAEFDQIMKSDPDHLAELVKRVNHWLTCSRWKKVQWCSLSVIKLKNKIKYRAEACIKMQKTIRMWLCKRRHKPRIDGLVKVGTLKKRLDKFNEVVSVLKDGKPEMNKQIKNLEISIDTLMAKIKSTMMTQEQIQKEYDALVKSSEELLSALQKKKQQEEEAERLRRIQEEMEKERKRREEDEKRRRKEEEERRMKLEMEAKRKQEEEERKKREDDEKRIQAEVEAQLARQKEEESQQQAVLEQERRDRELALRIAQSEAELISDEAQADLALRRSLDSYPVSKNDGTRPKMTPEQMAKEMSEFLSRGPAVLATKAAAGTKKYDLSKWKYAELRDTINTSCDIELLAACREEFHRRLKVYHAWKSKNKKRNTETEQRAPKSVTDYDFAPFLNNSPQQNPAAQIPARQREIEMNRQQRFFRIPFIRPADQYKDPQSKKKGWWYAHFDGPWIARQMELHPDKPPILLVAGKDDMEMCELNLEETGLTRKRGAEILPRQFEEIWERCGGIQYLQNAIESRQARPTYATAMLQSLLK
notes: myosin VI, endogenous protein found by proximity labeling mass spectrometry; source: endogenous, Flp-In T-REx 293 cells
For B1, the “interaction relative to that of TOM1 WT with myosin VI” value [3] was 69%.
